# According to patent publication US20130079278A1 (Novo Nordisk, published 2013):
# *1 amine or outer side, *2 acyl side, *3 side chain or, on linkers, in order; H or OH if unused. Where no end group is shown, it is not given here. Side-chain parts run from the residue outwards. The star is where a group is joined. C20 diacid = O=C(O)CCCCCCCCCCCCCCCCCCC(=O)*; C18 diacid = O=C(O)CCCCCCCCCCCCCCCCC(=O)*; C16 diacid = O=C(O)CCCCCCCCCCCCCCC(=O)*; γGlu = O=C(O)[C@H](CCC(=O)[*:2])N[*:1]; AEEA = NCCOCCOCC(=O)O
# B1: N^ε24-[(4S)-4-carboxy-4-[[(4S)-4-carboxy-4-[[2-[2-[2-[[2-[2-[2-[[(4S)-4-carboxy-4-(17-carboxyheptadecanoylamino)butanoyl]amino]ethoxy]ethoxy]acetyl]amino]ethoxy … (peptide)
# peptide: HSQGTFTSDYSKYLDTRRAQDFVK([γGlu-γGlu-AEEA-AEEA-γGlu-C18 diacid])WLLST-NH2
# modifications: N-terminus assumed
# SMILES: CC(C)C[C@H](NC(=O)[C@H](Cc1c[nH]c2ccccc12)NC(=O)[C@H](CCCCNC(=O)CC[C@H](NC(=O)CC[C@H](NC(=O)COCCOCCNC(=O)COCCOCCNC(=O)CC[C@H](NC(=O)CCCCCCCCCCCCCCCCC(=O)O)C(=O)O)C(=O)O)C(=O)O)NC(=O)[C@@H](NC(=O)[C@H](Cc1ccccc1)NC(=O)[C@H](CC(=O)O)NC(=O)[C@H](CCC(N)=O)NC(=O)[C@H](C)NC(=O)[C@H](CCCNC(=N)N)NC(=O)[C@H](CCCNC(=N)N)NC(=O)[C@@H](NC(=O)[C@H](CC(=O)O)NC(=O)[C@H](CC(C)C)NC(=O)[C@H](Cc1ccc(O)cc1)NC(=O)[C@H](CCCCN)NC(=O)[C@H](CO)NC(=O)[C@H](Cc1ccc(O)cc1)NC(=O)[C@H](CC(=O)O)NC(=O)[C@H](CO)NC(=O)[C@@H](NC(=O)[C@H](Cc1ccccc1)NC(=O)[C@@H](NC(=O)CNC(=O)[C@H](CCC(N)=O)NC(=O)[C@H](CO)NC(=O)[C@@H](N)Cc1c[nH]cn1)[C@@H](C)O)[C@@H](C)O)[C@@H](C)O)C(C)C)C(=O)N[C@@H](CC(C)C)C(=O)N[C@@H](CO)C(=O)N[C@H](C(N)=O)[C@@H](C)O
# Target: glucagon receptor (human, UniProt P47871 26-477)
# Sequence (P47871 26-477): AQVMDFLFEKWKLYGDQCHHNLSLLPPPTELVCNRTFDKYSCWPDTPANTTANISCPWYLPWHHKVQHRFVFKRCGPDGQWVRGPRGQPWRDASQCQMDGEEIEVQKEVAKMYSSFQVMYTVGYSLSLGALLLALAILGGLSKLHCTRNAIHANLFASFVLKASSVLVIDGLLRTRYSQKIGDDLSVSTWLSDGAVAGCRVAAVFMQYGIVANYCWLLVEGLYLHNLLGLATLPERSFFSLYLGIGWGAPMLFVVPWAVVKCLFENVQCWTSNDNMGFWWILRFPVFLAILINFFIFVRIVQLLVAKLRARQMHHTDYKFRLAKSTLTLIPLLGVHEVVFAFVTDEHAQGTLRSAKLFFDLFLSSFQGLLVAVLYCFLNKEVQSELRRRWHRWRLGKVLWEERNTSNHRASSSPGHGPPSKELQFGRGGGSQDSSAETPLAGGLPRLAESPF
# Test: cell-based or functional assay
row,Assay (I) Glucagon [EC50],Binder
1,249 pM,HSHGTFTSDYSKYLDSRRAKDFVK([γGlu-γGlu-AEEA-AEEA-γGlu-C18 diacid])WLLST
2,153 pM,HSQGTFTSDYSRYLDERRAQDFVK([γGlu-γGlu-AEEA-AEEA-γGlu-C18 diacid])WLLST
3,118 pM,HSQGTFTSDVSKYLESRRAQEFVK([γGlu-γGlu-γGlu-γGlu-C18 diacid])WLLST
4,413 pM,HSQGTFTSDYSKYLDTRRAQDFVK([γGlu-AEEA-AEEA-γGlu-C18 diacid])WLLNI
5,237 pM,HSHGTFTSDYSKYLDERRAKDFVK([γGlu-γGlu-AEEA-AEEA-γGlu-C18 diacid])WLLST
6,1630 pM,HSQGTFTSDVSRYLESRRAQEFVK([γGlu-γGlu-AEEA-AEEA-γGlu-C18 diacid])WLEST
7,148 pM,HSQGTFTSDYSRYLESRRAQEFVK([γGlu-γGlu-γGlu-γGlu-C18 diacid])WLLST
8,169 pM,HSQGTFTSDYSKYLESRRAQEFVK([γGlu-γGlu-γGlu-γGlu-C18 diacid])WLLST
9,78 pM,HSQGTFTSDYSKYLDTRRAQDFVK([AEEA-γGlu-γGlu-AEEA-γGlu-C18 diacid])WLLST
10,95 pM,HSQGTFTSDYSRYLDLRRAQEFVK([γGlu-γGlu-AEEA-AEEA-γGlu-C18 diacid])WLLST
11,136 pM,HSQGTFTSDYSRYLDLRRAQDFVK([γGlu-γGlu-AEEA-AEEA-γGlu-C18 diacid])WLEST
12,99 pM,HSQGTFTSDYSRYLDIRRAQEFVK([γGlu-γGlu-AEEA-AEEA-γGlu-C18 diacid])WLEST
13,243 pM,HSQGTFTSDYSRYLDLRRAQDFVK([γGlu-γGlu-γGlu-AEEA-AEEA-γGlu-C18 diacid])WLLST
14,67 pM,HSQGTFTSDYSRYLDLRRAQDFVK([γGlu-γGlu-AEEA-AEEA-γGlu-C16 diacid])WLLST
15,192 pM,HSQGTFTSDYSKYLDARRAQDFVK([γGlu-γGlu-AEEA-AEEA-γGlu-C18 diacid])WLLQT
16,72 pM,HSQGTFTSDYSKYLDTRRAQEFVK([γGlu-γGlu-AEEA-AEEA-γGlu-C18 diacid])WLLST
17,49 pM,HSQGTFTSDYSKYLDARRAQDFVK([γGlu-γGlu-AEEA-AEEA-γGlu-C18 diacid])WLLST
18,1320 pM,HSQGTFTSDYSRYLDLRRAQDFVK([γGlu-γGlu-γGlu-C18 diacid])WLLST

row,Assay (I) Glucagon [EC50],Binder
1,920 pM,HSQGTFTSDYSKYLESRRAQDFVK([γGlu-AEEA-AEEA-γGlu-C18 diacid])WLLNV
2,139 pM,HSQGTFTSDVSKYLDTRRAQEFVK([γGlu-γGlu-AEEA-AEEA-γGlu-C18 diacid])WLLST
3,289 pM,HSQGTFTSDYSRYLESRRAQEFVK([γGlu-γGlu-AEEA-AEEA-γGlu-C18 diacid])WLLST
4,183 pM,HSQGTFTSDYSKYLDTRRAQEFVK([γGlu-AEEA-AEEA-γGlu-C18 diacid])WLLNL
5,39 pM,B1
6,204 pM,HSQGTFTSDYSRYLDLRRAQDFVK([γGlu-γGlu-AEEA-AEEA-γGlu-C18 diacid])WLLQT
7,1090 pM,HSQGTFTSDYSRYLESRRAQEFVK([γGlu-γGlu-AEEA-AEEA-γGlu-C18 diacid])WLEST
8,100 pM,HSQGTFTSDYSRYLDLRRAQDFVK([AEEA-AEEA-γGlu-γGlu-γGlu-C18 diacid])WLLST
9,1070 pM,HSQGTFTSDYSRYLDLRRAQDFVK([γGlu-γGlu-AEEA-AEEA-γGlu-C20 diacid])WLLST
10,910 pM,HSQGTFTSDYSRYLDLRRAQDFVK([γGlu-AEEA-AEEA-γGlu-γGlu-C18 diacid])WLLST
11,176 pM,HSQGTFTSDYSRYLDTRRAQDFVK([γGlu-γGlu-AEEA-AEEA-γGlu-C18 diacid])WLEST
12,70 pM,HSQGTFTSDYSKYLDARRAQDFVK([γGlu-γGlu-AEEA-AEEA-γGlu-C18 diacid])WLEST
13,1900 pM,HSQGTFTSDYSKYLESRRAQDFVK([γGlu-AEEA-AEEA-γGlu-C18 diacid])WLLNL
14,307 pM,HSQGTFTSDYSKYLDVRRAQDFVK([γGlu-γGlu-AEEA-AEEA-γGlu-C18 diacid])WLLST
15,130 pM,HSQGTFTSDYSKYLDERRAQDFVK([γGlu-γGlu-AEEA-AEEA-γGlu-C18 diacid])WLLST
16,105 pM,HSHGTFTSDYSKYLDSRRAQDFVK([γGlu-γGlu-AEEA-AEEA-γGlu-C18 diacid])WLLNT
17,1120 pM,HSQGTFTSDYSKYLESRRAQDFVK([γGlu-AEEA-AEEA-γGlu-C18 diacid])WLLNI
18,120 pM,HSQGTFTSDYSKYLDTRRAQEFVK([γGlu-AEEA-AEEA-γGlu-C18 diacid])WLLNV
